Like-named read-outs stand apart in the source and are kept apart here.
How the values were obtained:
[1] = target: T1, rhNR10 (recombinant human NR10) (human, UniProt Q8NI17 20-519, limits assumed); assay: SPR, Biacore T100; antibody captured on Protein A, rhNR10 as analyte
T1 construct: also called IL-31 receptor; IL31RA
T1 sequence: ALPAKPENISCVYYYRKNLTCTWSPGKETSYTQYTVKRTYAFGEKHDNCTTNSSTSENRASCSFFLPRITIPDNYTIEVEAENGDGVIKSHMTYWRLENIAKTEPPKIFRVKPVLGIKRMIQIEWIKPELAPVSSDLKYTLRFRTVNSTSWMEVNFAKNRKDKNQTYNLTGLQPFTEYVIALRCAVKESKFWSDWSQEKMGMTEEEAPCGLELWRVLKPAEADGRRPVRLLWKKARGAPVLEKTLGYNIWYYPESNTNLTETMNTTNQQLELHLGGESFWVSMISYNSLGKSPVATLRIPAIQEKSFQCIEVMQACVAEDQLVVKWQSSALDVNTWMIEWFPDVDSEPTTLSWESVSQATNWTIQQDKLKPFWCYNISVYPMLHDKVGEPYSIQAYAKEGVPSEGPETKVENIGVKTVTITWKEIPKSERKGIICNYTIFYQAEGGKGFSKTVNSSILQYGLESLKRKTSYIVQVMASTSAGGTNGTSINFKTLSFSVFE
Method: (§1) Kinetic analysis of the antigen-antibody reaction was carried out using Biacore T100 (GE Healthcare Biosciences). The antigen-antibody interaction was measured by immobilizing rec-Protein A (hereinafter Protein A) (ZYMED) onto a sensor chip, capturing an antibody on the immobilized Protein A, and then reacting the antigen as an analyte. Various concentrations of rhNR10 were used as the antigen. The kinetic parameters, association rate constant kₐ (1/Ms) and dissociation rate constant kd (1/s), were calculated from the sensorgrams obtained by the measurement. Then, KD (M) was determined based on the rate constants. Each parameter was determined using Biacore T100 Evaluation Software version 1.1 (GE Healthcare Biosciences).
(§2) The running buffer used was HBS-EP+. Each antibody was prepared at 0.25 μg/ml, or prepared so that about 100 RU would bind to Protein A. rhNR10 used as an analyte was prepared at 0, 38.5, 77.0, and 154 nM, or at 0, 19.25, and 77.01 nM using HBS-EP+. In the measurement, first, the antibody solution was captured on Protein A, and an analyte solution was reacted at a flow rate of 20 μL/min for three minutes. Then, the solution was switched to HBS-EP+, and the dissociation phase was measured for five minutes. After measurement of the dissociation phase, the sensor chip was regenerated by washing with 10 mM glycine-HCl (pH 1.5). The obtained sensorgrams were kinetically analyzed using the Biacore-specific data analysis software, Biacore T100 Evaluation Software Version 1.1.

[2] = target: T1, rhNR10 (recombinant human NR10); assay: as above; remark: listed apart in the source
Method: as §1, §2

| Kd [1] | koff [1] | kon [1] | Kd [2] | koff [2] | kon [2] | Binder |
| --- | --- | --- | --- | --- | --- | --- |
| 1.8 nM | 0.00044 s⁻¹ | 250000 M⁻¹ s⁻¹ |  |  |  | H0La134 (H0-SKSC / La134) (antibody, V domains shown) VH: QVQLVQSGAEVKKPGASVKVSCKASGYTFTGYIMNWVRQAPGQGLEWMGLINPYNGGTSYNQKFKGRVTITADESTSTAYMELSSLRSEDTAVYYCARDGYDDGPYTMDYWGQGTLVTVSS VL: DIQMTQSPSSLSASVGDRVTITCRTSENIYRFLAWYQQKPGKAPKLLIYNAKTLAKGVPSRFSGSGSGTDFTLTISSLQPEDFATYYCQHHYESPLTFGGGTKVEIKR |
| 2.9 nM | 0.00052 s⁻¹ | 180000 M⁻¹ s⁻¹ |  |  |  | H0La328 (H0-SKSC / La328) (antibody, V domains shown) VH: QVQLVQSGAEVKKPGASVKVSCKASGYTFTGYIMNWVRQAPGQGLEWMGLINPYNGGTSYNQKFKGRVTITADESTSTAYMELSSLRSEDTAVYYCARDGYDDGPYTMDYWGQGTLVTVSS VL: DIQMTQSPSSLSASVGDRVTITCRTSENIYSFLAWYQQKPGKAPKLLIYNAKTLAKGVPSRFSGSGSGTDFTLTISSLQPEDFATYYCQHHYEDPLTFGGGTKVEIKR |
|  |  |  | 0.52 nM | 0.00033 s⁻¹ | 640000 M⁻¹ s⁻¹ | H28L17 (H28-M58 / L17) (antibody, V domains shown) VH: QVQLVQSGAEVKKPGASVKVSCKASGYTFTGYVLNWVRQAPGQGLEWMGLINPYNGGTDYNPQFQDRVTITADESTSTAYMELSSLRSEDTAVYYCARDGYDDGPYTLETWGQGTLVTVSS VL: DIQMTQSPSSLSASVGDRVTITCQASEDIYSFVAWYQQKPGKAPKLLIYNAQTEAQGVPSRFSGSGSGTDFTLTISSLQPEDFATYYCQHHYDSPLTFGGGTKVEIKR |
|  |  |  | 0.65 nM | 0.00037 s⁻¹ | 570000 M⁻¹ s⁻¹ | H42L17 (H42-M58 / L17) (antibody, V domains shown) VH: QVQLVQSGAEVKKPGASVKVSCKASGYTFTGYVLNWVRQAPGQGLEWMGLINPYNGGTDYNPQFQDRVTITADKSTSTAYMELSSLRSEDTAVYYCARDGYDDGPYTLETWGQGTLVTVSS VL: DIQMTQSPSSLSASVGDRVTITCQASEDIYSFVAWYQQKPGKAPKLLIYNAQTEAQGVPSRFSGSGSGTDFTLTISSLQPEDFATYYCQHHYDSPLTFGGGTKVEIKR |
|  |  |  | 0.77 nM | 0.00055 s⁻¹ | 710000 M⁻¹ s⁻¹ | H57L17 (H57-M58 / L17) (antibody, V domains shown) VH: QVQLVQSGAEVKKPGASVKVSCKASGYTFTGYIMNWVRQAPGQGLEWMGLINPYNGGTDYNPQFQGRVTITADESTSTAYMELSSLRSEDTAVYYCARDGYDDGPYTLETWGQGTLVTVSS VL: DIQMTQSPSSLSASVGDRVTITCQASEDIYSFVAWYQQKPGKAPKLLIYNAQTEAQGVPSRFSGSGSGTDFTLTISSLQPEDFATYYCQHHYDSPLTFGGGTKVEIKR |
|  |  |  | 3.3 nM | 0.0012 s⁻¹ | 370000 M⁻¹ s⁻¹ | H71L17 (H71-M58 / L17) (antibody, V domains shown) VH: QVQLVQSGAEVKKPGASVKVSCKASGYTFTGYAMNWVRQAPGQGLEWMGLINPYNGGTDYNPQFQGRVTITADESTSTAYMELSSLRSEDTAVYYCARDGYDDGPYTLETWGQGTLVTVSS VL: DIQMTQSPSSLSASVGDRVTITCQASEDIYSFVAWYQQKPGKAPKLLIYNAQTEAQGVPSRFSGSGSGTDFTLTISSLQPEDFATYYCQHHYDSPLTFGGGTKVEIKR |
|  |  |  | 4.1 nM | 0.0013 s⁻¹ | 310000 M⁻¹ s⁻¹ | H92L17 (H92-M58 / L17) (antibody, V domains shown) VH: QVQLVQSGAEVKKPGASVKVSCKASGYTFTGYAMNWVRQAPGQGLEWMGLINPYNGGTDYNPQFQGRVTITADKSTSTAYMELSSLRSEDTAVYYCARDGYDDGPYTLETWGQGTLVTVSS VL: DIQMTQSPSSLSASVGDRVTITCQASEDIYSFVAWYQQKPGKAPKLLIYNAQTEAQGVPSRFSGSGSGTDFTLTISSLQPEDFATYYCQHHYDSPLTFGGGTKVEIKR |

More lines, now with the values behind:

| Binder | Kd [1] | koff [1] | kon [1] | Kd [2] | koff [2] | kon [2] |
| --- | --- | --- | --- | --- | --- | --- |
| H0La130 (H0-SKSC / La130) (antibody, V domains shown) VH: QVQLVQSGAEVKKPGASVKVSCKASGYTFTGYIMNWVRQAPGQGLEWMGLINPYNGGTSYNQKFKGRVTITADESTSTAYMELSSLRSEDTAVYYCARDGYDDGPYTMDYWGQGTLVTVSS VL: DIQMTQSPSSLSASVGDRVTITCRTSENIYRFVAWYQQKPGKAPKLLIYNAKTLAKGVPSRFSGSGSGTDFTLTISSLQPEDFATYYCQHHYESPLTFGGGTKVEIKR | 1.5 nM | 0.0004 s⁻¹ | 260000 M⁻¹ s⁻¹ |  |  |  |
| H0La303 (H0-SKSC / La303) (antibody, V domains shown, also called Ls303) VH: QVQLVQSGAEVKKPGASVKVSCKASGYTFTGYIMNWVRQAPGQGLEWMGLINPYNGGTSYNQKFKGRVTITADESTSTAYMELSSLRSEDTAVYYCARDGYDDGPYTMDYWGQGTLVTVSS VL: DIQMTQSPSSLSASVGDRVTITCRTSENIYSFLAWYQQKPGKAPKLLIYNAKTLAKGVPSRFSGSGSGTDFTLTISSLQPEDFATYYCQHHYDSPLTFGGGTKVEIKR | 2.1 nM | 0.00046 s⁻¹ | 220000 M⁻¹ s⁻¹ |  |  |  |
| H0La326 (H0-SKSC / La326) (antibody, name in Kabat numbering, V domains shown) VH: QVQLVQSGAEVKKPGASVKVSCKASGYTFTGYIMNWVRQAPGQGLEWMGLINPYNGGTSYNQKFKGRVTITADESTSTAYMELSSLRSEDTAVYYCARDGYDDGPYTMDYWGQGTLVTVSS VL: DIQMTQSPSSLSASVGDRVTITCRTSENIYSFLAWYQQKPGKAPKLLIYNAKTLAKGVPSRFSGSGSGTDFTLTISSLQPEDFATYYCQHHYESPLFFGGGTKVEIKR | 3.7 nM | 0.00052 s⁻¹ | 140000 M⁻¹ s⁻¹ |  |  |  |
| H30L17 (H30-M58 / L17) (antibody, V domains shown) VH: QVQLVQSGAEVKKPGASVKVSCKASGYTFTGYIMNWVRQAPGQGLEWMGLINPYNGGTDYNPQFQDRVTITADESTSTAYMELSSLRSEDTAVYYCARDGYDDGPYTLETWGQGTLVTVSS VL: DIQMTQSPSSLSASVGDRVTITCQASEDIYSFVAWYQQKPGKAPKLLIYNAQTEAQGVPSRFSGSGSGTDFTLTISSLQPEDFATYYCQHHYDSPLTFGGGTKVEIKR |  |  |  | 0.83 nM | 0.00057 s⁻¹ | 680000 M⁻¹ s⁻¹ |
| H34L17 (H34-M58 / L17) (antibody, V domains shown) VH: QVQLVQSGAEVKKPGASVKVSCKASGYTFTGYAMNWVRQAPGQGLEWMGLINPYNGGTDYNPQFQDRVTITADESTSTAYMELSSLRSEDTAVYYCARDGYDDGPYTLETWGQGTLVTVSS VL: DIQMTQSPSSLSASVGDRVTITCQASEDIYSFVAWYQQKPGKAPKLLIYNAQTEAQGVPSRFSGSGSGTDFTLTISSLQPEDFATYYCQHHYDSPLTFGGGTKVEIKR |  |  |  | 3.6 nM | 0.0012 s⁻¹ | 340000 M⁻¹ s⁻¹ |
| H46L17 (H46-M58 / L17) (antibody, V domains shown) VH: QVQLVQSGAEVKKPGASVKVSCKASGYTFTGYAMNWVRQAPGQGLEWMGLINPYNGGTDYNPQFQDRVTITADKSTSTAYMELSSLRSEDTAVYYCARDGYDDGPYTLETWGQGTLVTVSS VL: DIQMTQSPSSLSASVGDRVTITCQASEDIYSFVAWYQQKPGKAPKLLIYNAQTEAQGVPSRFSGSGSGTDFTLTISSLQPEDFATYYCQHHYDSPLTFGGGTKVEIKR |  |  |  | 4.6 nM | 0.0013 s⁻¹ | 290000 M⁻¹ s⁻¹ |
| H78L17 (H78-M58 / L17) (antibody, V domains shown) VH: QVQLVQSGAEVKKPGASVKVSCKASGYTFTGYIMNWVRQAPGQGLEWMGLINPYNGGTDYNPQFQGRVTITADKSTSTAYMELSSLRSEDTAVYYCARDGYDDGPYTLETWGQGTLVTVSS VL: DIQMTQSPSSLSASVGDRVTITCQASEDIYSFVAWYQQKPGKAPKLLIYNAQTEAQGVPSRFSGSGSGTDFTLTISSLQPEDFATYYCQHHYDSPLTFGGGTKVEIKR |  |  |  | 1.1 nM | 0.0007 s⁻¹ | 610000 M⁻¹ s⁻¹ |
| H97L50 (H97-M58 / L50) (antibody, V domains shown) VH: QVQLVQSGAEVKKPGASVKVSCKASGYTFTGYIMNWVRQAPGQGLEWMGLINPYNGGTSYNQQFQDRVTITADESTSTAYMELSSLRSEDTAVYYCARDGYDDGPYTLETWGQGTLVTVSS VL: DIQMTQSPSSLSASVGDRVTITCQASEDIYSFLAWYQQKPGKAPKLLIYNAQTEAQGVPSRFSGSGSGTDFTLTISSLQPEDFATYYCQHHYDSPLTFGGGTKVEIKR |  |  |  | 3.5 nM | 0.0013 s⁻¹ | 360000 M⁻¹ s⁻¹ |
| H98L50 (H98-M58 / L50) (antibody, V domains shown) VH: QVQLVQSGAEVKKPGASVKVSCKASGYTFTGYIMNWVRQAPGQGLEWMGLINPYNGGTSYNQQFQDRVTITADKSTSTAYMELSSLRSEDTAVYYCARDGYDDGPYTLETWGQGTLVTVSS VL: DIQMTQSPSSLSASVGDRVTITCQASEDIYSFLAWYQQKPGKAPKLLIYNAQTEAQGVPSRFSGSGSGTDFTLTISSLQPEDFATYYCQHHYDSPLTFGGGTKVEIKR |  |  |  | 4.6 nM | 0.0013 s⁻¹ | 290000 M⁻¹ s⁻¹ |
